# B1: EMVBB8 (EMR2 x TRBV19 bispecific antibody) (bispecific antibody, human IgG1, kappa, L234A L235A)
# heavy 1: DIQMTQSPSSLSASVGDRVTITCRSSQSLVHSNRNTYLHWYQQKPGCAPKLLIYKVSNRFSGVPSRFSGSGSGTDFTLTISSLQPEDFATYYCSQSTHVPFTFGQGTKLEIKGGGSGGSGGCPPCGGSGGQVQLQESGPGLVKPSETLSLTCTVSGYSITSGYFWNWIRQFPGKGLEWMGYISYDGSNNYNPSLKSRITISRDTSKNQFSLKLSSVTAADTAVYYCASPSPGTGYAVDYWGCGTTVTVSSEPKSSDKTHTCPPCPAPEAAGGPSVFLFPPKPKDTLMISRTPEVTCVVVSVSHEDPEVKFNWYVDGVEVHNAKTKPREEQYNSTYRVVSVLTVLHQDWLNGKEYKCKVSNKALPAPIEKTISKAKGQPREPQVYTLPPSREEMTKNQVSLWCLVKGFYPSDIAVEWESNGQPENNYKTTPPVLDSDGSFFLYSKLTVDKSRWQQGNVFSCSVMHEALHNHYTQKSLSLSPGK
# heavy 2: EVQLVESGGGLVQPGGSLRLSCTASGFTFSRYSMNWVRQAPGEGLEWVSYISSSSNTIYYADSVKGRFTISRDNAKNSLYLQMNSLRDEDTAVYYCARDQGTPFDYWGQGTLVTVSSASTKGPSVFPLAPSSKSTSGGTAALGCLVKDYFPEPVTVSWNSGALTSGVHTFPAVLQSSGLYSLSSVVTVPSSSLGTQTYICNVNHKPSNTKVDKKVEPKSCDKTHTCPPCPAPEAAGGPSVFLFPPKPKDTLMISRTPEVTCVVVSVSHEDPEVKFNWYVDGVEVHNAKTKPREEQYNSTYRVVSVLTVLHQDWLNGKEYKCKVSNKALPAPIEKTISKAKGQPREPQVYTLPPSREEMTKNQVSLSCAVKGFYPSDIAVEWESNGQPENNYKTTPPVLDSDGSFFLVSKLTVDKSRWQQGNVFSCSVMHEALHNRFTQKSLSLSPGK
# light: EIVLTQSPSSVSASIGDRVTITCRASQDISSWLGWYQQKPGKAPKLLIYAAISLQSGVPSRFSGSESGTDFTLTISSLQPEDFATYYCHQANSFPLTFGGGTKVEIKRTVAAPSVFIFPPSDEQLKSGTASVVCLLNNFYPREAKVQWKVDNALQSGNSQESVTEQDSKDSTYSLSSTLTLSKADYEKHKVYACEVTHQGLSSPVTKSFNRGEC
# notes: also called the bispecific antibody
# Legend:
# [1] = biological target: T1, EMR2W4, huEMR2 GAIN domain + GPS, D261-T540, with C-terminal Avi/6x His tag (human); assay: SPR, EMR2 arm, forced degradation study: pH 8.5
# T1 construct: also called Human EMR2 GAIN domain protein
# T1 chain: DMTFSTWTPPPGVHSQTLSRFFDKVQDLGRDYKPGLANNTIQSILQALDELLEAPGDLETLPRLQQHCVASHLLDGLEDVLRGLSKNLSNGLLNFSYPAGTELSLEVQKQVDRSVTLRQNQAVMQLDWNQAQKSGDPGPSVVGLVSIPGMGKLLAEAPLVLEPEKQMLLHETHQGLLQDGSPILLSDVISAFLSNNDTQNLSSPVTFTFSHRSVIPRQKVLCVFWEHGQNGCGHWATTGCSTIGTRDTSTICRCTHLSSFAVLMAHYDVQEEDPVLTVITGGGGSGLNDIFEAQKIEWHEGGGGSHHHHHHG
# [2] = biological target: T2, T-cell receptor with TRBV19 (Vβ17) beta chain on human T cells (human); assay: flow cytometry, percent TRBV19+ of live pan-T cells, Donor 6, 1 hour, 37 °C
# T2 construct: whole, on cells; also called Vb17; TRBV19+ T cells
# T2 sequence (A0A075B6N1 22-114): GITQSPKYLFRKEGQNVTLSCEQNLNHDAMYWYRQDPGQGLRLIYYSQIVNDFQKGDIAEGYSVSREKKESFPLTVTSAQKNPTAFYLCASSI
# [3] = biological target: T1, EMR2W4, huEMR2 GAIN domain + GPS, …; assay: SPR, row 'SPR (KD) / EMR2' of the Forced Degradation table; first sample batch (in PBS); stress condition of the KD and EMR2 construct not named on the sheet
# [4] = biological target: T2, T-cell receptor with TRBV19 (Vβ17) beta …; assay: flow cytometry, % TRBV19+ T cells of live human pan-T cells, 1 hour at 37 C
# [5] = biological target: T3, human EMR2 (ADGRE2, CD312) on cells (human, UniProt Q9UHX3 24-823); assay: flow cytometry, OCI-AML3 cells, 1 hour at 37 °C; mean ± SEM
# T3 construct: also called huEMR2 full length; Adhesion G protein-coupled receptor E2
# T3 sequence: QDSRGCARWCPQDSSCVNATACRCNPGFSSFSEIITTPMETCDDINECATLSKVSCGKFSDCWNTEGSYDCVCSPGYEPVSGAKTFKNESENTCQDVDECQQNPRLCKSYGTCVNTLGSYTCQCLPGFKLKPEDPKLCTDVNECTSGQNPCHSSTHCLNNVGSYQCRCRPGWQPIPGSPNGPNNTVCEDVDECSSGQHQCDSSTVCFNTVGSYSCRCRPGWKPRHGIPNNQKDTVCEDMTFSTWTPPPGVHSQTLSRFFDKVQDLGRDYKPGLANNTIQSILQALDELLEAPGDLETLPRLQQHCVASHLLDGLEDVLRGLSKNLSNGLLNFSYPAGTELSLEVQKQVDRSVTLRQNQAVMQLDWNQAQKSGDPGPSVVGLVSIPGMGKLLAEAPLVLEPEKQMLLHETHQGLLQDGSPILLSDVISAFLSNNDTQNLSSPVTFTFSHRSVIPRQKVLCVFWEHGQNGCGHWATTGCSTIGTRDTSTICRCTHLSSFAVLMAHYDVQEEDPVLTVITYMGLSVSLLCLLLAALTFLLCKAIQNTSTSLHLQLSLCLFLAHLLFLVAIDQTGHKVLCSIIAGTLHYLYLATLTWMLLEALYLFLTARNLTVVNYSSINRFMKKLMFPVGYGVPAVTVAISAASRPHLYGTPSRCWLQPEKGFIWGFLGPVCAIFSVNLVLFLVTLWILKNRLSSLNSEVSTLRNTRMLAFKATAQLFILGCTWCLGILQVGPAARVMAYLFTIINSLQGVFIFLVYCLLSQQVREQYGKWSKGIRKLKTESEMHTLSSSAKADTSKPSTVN
# Method: After secondary detection with AF647-labeled material, the MFI signal was analyzed to generate an EC50 value. Curves are representative of 3 independent experiments.
# [6] = biological target: T1, EMR2W4, huEMR2 GAIN domain + GPS, …; assay: SPR, EMR2 arm, forced degradation study: chemical oxidation
# [7] = biological target: T3, human EMR2 (ADGRE2, CD312) on cells; assay: flow cytometry, median AF647 of live cells, MOLM 13 cells, 1 hour at 37 C
# [8] = biological target: T2, T-cell receptor with TRBV19 (Vβ17) beta …; assay: cell-based or functional assay
# [9] = biological target: T3, human EMR2 (ADGRE2, CD312) on cells; assay: cell-based or functional assay
# [10] = biological target: T1, EMR2W4, huEMR2 GAIN domain + GPS, …; assay: SPR, EMR2 arm, forced degradation study: Physiological
binder,measurement,setting,value
B1,Kd,[1],0.25 nM
same,EC50,[2],4.9 nM
same,Kd,[3],0.154 nM
same,EC50,[4],13.1 nM
same,Max % TRV19+,[4],7.72%
same,EC50,[5],48 nM
same,Kd,[6],0.2 nM
same,EC50,[7],16.4 nM
same,Max (MFI),[7],400000 MFI
same,"Pan-T-cell activation (CD25), EC50 (nM), 24 hours, PBMC + OCI-AML3 (Table 10)",[8],0.02 nM
same,"Pan-T-cell activation (CD25), EC50 (nM), 48 hours, PBMC + OCI-AML3 (Table 10)",[8],0.01 nM
same,"Pan-T-cell activation (CD25), EC50 (nM), 72 hours, PBMC + OCI-AML3 (Table 10)",[8],0.01 nM
same,"Pan-T-cell activation (CD25), EC50 (nM), 96 hours, PBMC + OCI-AML3 (Table 10)",[8],0.01 nM
same,"Pan-T-cell activation (CD25), EC50 (nM), 120 hours, PBMC + OCI-AML3 (Table 10)",[8],0.01 nM
same,"Cytotoxicity, EC50 (nM), 24 hours, PBMC + OCI-AML3 (Table 10)",[9],0.02 nM
same,"Cytotoxicity, EC50 (nM), 48 hours, PBMC + OCI-AML3 (Table 10)",[9],0.01 nM
same,"Cytotoxicity, EC50 (nM), 72 hours, PBMC + OCI-AML3 (Table 10)",[9],0.004 nM
same,"Cytotoxicity, EC50 (nM), 96 hours, PBMC + OCI-AML3 (Table 10)",[9],0.003 nM
same,"Cytotoxicity, EC50 (nM), 120 hours, PBMC + OCI-AML3 (Table 10)",[9],0.004 nM
same,Kd,[10],0.21 nM
